Assay results published in patent US20230233512A1 (UNIVERSITY OF SOUTH CAROLINA, published 2023).

B4: PACT C213F (recessive DYT16 mutant) (other, UniProt O75569 1-313, looked up)
chain: MSQSRHRAEAPPLEREDSGTFSLGKMITAKPGKTPIQVLHEYGMKTKNIPVYECERSDVQIHVPTFTFRVTVGDITCTGEGTSKKLAKHRAAEAAINILKANASICFAVPDPLMPDPSKQPKNQLNPIGSLQELAIHHGWRLPEYTLSQEGGPAHKREYTTICRLESFMETGKGASKKQAKRNAAEKFLAKFSNISPENHISLTNVVGHSLGFTWHSLRNSPGEKINLLKRSLLSIPNTDYIQLLSEIAKEQGFNITYLDIDELSANGQYQCLAELSTSPITVCHGSGISCGNAQSDAAHNALQYLKIIAERK
notes: N-terminal Myc or FLAG tag in co-IP; GAL4-DBD or VP16-AD fusion in mammalian two-hybrid; histidine tag in PKR activity assay
B5: PACT C77S (recessive DYT16 mutant) (other, UniProt O75569 1-313, looked up)
chain: MSQSRHRAEAPPLEREDSGTFSLGKMITAKPGKTPIQVLHEYGMKTKNIPVYECERSDVQIHVPTFTFRVTVGDITSTGEGTSKKLAKHRAAEAAINILKANASICFAVPDPLMPDPSKQPKNQLNPIGSLQELAIHHGWRLPEYTLSQEGGPAHKREYTTICRLESFMETGKGASKKQAKRNAAEKFLAKFSNISPENHISLTNVVGHSLGCTWHSLRNSPGEKINLLKRSLLSIPNTDYIQLLSEIAKEQGFNITYLDIDELSANGQYQCLAELSTSPITVCHGSGISCGNAQSDAAHNALQYLKIIAERK
notes: as for B4

Key:
[1] = biological target: T1, wild type (wt) PACT, O75569
T1 chain: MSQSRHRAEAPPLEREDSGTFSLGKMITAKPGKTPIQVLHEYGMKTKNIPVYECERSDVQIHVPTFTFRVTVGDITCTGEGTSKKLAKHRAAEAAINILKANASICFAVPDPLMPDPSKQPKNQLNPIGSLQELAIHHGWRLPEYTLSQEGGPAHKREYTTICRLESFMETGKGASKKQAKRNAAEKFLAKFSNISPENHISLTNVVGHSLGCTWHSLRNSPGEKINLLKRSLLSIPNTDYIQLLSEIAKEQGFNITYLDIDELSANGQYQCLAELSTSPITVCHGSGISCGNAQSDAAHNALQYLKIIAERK

[2] = biological target: T2, PACT C213R (recessive DYT16 mutant), O75569
T2 chain: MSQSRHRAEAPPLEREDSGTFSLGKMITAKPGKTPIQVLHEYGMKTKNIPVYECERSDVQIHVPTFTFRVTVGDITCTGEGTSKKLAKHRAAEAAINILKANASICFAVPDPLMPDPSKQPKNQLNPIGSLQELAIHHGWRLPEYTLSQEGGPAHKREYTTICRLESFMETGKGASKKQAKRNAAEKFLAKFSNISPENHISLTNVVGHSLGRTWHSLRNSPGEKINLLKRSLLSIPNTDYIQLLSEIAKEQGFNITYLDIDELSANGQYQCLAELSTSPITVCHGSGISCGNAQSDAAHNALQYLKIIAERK

[3] = biological target: T3, PACT P222L (recessive DYT16 mutant), O75569
T3 chain: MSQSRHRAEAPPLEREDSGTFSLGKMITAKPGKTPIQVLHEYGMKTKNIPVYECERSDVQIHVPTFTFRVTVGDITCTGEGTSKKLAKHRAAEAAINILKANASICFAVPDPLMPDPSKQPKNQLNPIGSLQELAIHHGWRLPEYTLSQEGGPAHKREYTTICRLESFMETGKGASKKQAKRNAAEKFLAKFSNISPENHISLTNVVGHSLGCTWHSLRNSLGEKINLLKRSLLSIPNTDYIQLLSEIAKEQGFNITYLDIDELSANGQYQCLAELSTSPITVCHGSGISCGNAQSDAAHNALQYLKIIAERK

[4] = biological target: T4, PACT C77S (recessive DYT16 mutant), O75569
T4 chain: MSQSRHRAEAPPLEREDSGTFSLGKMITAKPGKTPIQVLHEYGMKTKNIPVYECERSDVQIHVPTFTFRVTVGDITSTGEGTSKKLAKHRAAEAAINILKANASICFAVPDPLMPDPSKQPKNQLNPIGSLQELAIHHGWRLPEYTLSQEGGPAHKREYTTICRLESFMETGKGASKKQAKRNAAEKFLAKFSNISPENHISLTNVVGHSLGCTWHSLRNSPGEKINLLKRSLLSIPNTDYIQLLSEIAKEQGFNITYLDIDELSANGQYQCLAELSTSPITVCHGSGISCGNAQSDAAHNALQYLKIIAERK

[5] = biological target: T5, PACT C213F (recessive DYT16 mutant), O75569
T5 chain: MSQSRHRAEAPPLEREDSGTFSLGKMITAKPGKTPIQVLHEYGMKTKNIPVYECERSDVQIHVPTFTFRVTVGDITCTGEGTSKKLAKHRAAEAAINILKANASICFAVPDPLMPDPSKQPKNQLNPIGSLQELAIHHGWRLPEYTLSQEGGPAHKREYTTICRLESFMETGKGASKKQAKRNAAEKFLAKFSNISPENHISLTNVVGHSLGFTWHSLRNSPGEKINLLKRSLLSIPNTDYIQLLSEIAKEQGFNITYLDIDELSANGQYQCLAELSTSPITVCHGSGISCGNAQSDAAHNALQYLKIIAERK

[6] = biological target: T6, PACT T34S (dominant DYT16 mutant), O75569
T6 chain: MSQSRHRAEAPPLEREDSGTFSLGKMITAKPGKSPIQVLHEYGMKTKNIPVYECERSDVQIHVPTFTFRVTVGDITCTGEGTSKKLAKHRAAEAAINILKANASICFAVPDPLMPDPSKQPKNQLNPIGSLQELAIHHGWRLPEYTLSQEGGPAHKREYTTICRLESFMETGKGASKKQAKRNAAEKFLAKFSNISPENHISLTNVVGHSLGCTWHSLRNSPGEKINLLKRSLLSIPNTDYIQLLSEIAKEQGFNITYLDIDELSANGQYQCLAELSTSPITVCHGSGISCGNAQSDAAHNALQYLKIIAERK

[7] = biological target: T7, PACT N102S (dominant DYT16 mutant), O75569
T7 chain: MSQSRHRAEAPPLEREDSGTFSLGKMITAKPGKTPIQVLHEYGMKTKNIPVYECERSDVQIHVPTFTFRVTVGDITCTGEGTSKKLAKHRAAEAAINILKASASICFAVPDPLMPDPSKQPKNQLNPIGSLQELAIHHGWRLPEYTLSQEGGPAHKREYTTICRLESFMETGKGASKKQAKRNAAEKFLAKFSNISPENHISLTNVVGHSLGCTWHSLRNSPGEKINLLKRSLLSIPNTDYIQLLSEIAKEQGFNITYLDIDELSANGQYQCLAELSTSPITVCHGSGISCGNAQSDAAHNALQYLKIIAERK

[8] = biological target: T8, flag-tagged dominant negative PKR mutant, K296R (UniProt P19525 1-551); assay: co-IP in HeLa cells: Myc-PACT on Myc-agarose, flag-PKR K296R detected by anti-flag blot
T8 construct: Used in the co-IP assays in HeLa cells; also called flag-PKR; flag-tagged K296R
Experimental: (§1) In all cases HeLa M cells were seeded at 20% confluency in 6-well dishes 24 hours prior to co-transfecting 250 ng of each flag- and/or Myc-tagged constructs using Effectene® reagent (Qiagen). Cells were harvested 24 hours post transfection and harvested in IP buffer. Whole cell extract was then immunoprecipitated overnight at 4° C. on a rotating wheel with either flag-agarose (Sigma) or Myc-agarose beads (Thermo Scientific). Immunoprecipitates were then washed 3-5 times in IP buffer followed by resuspension and boiling for 5 minutes in 1×Laemmle buffer. Samples were then resolved on 10% SDS-PAGE denaturing gels and transferred to PVDF membranes. […] The cell lysates were immunoprecipitated in 15 μL of Myc-agarose beads and resolved on 10% SDS-PAGE denaturing gels and transferred to PVDF membranes.
The immunoprecipitates were analyzed by western blot analysis with anti-flag (FIG. 4A) or anti-Myc (FIG. 4B) antibodies (co-IP panel) and with anti-Myc (FIG. 4A) or anti-flag (B) for IP panels.

[9] = biological target: B5; assay: mammalian two-hybrid, luciferase reporter; PACT proteins as GAL4-DBD bait and VP16-AD prey
[10] = biological target: B4; assay: co-IP in HeLa cells: flag-PACT on flag-agarose, Myc-PACT detected by anti-Myc blot
Experimental: as §1

B1: PKR (protein)
chain: MAGDLSAGFFMEELNTYRQKQGVVLKYQELPNSGPPHDRRFTFQVIIDGREFPEGEGRSKKEAKNAAAKLAVEILNKEKKAVSPLLLTTTNSSEGLSMGNYIGLINRIAQKKRLTVNYEQCASGVHGPEGFHYKCKMGQKEYSIGTGSTKQEAKQLAAKLAYLQILSEETSVKSDYLSSGSFATTCESQSNSLVTSTLASESSSEGDFSADTSEINSNSDSLNSSSLLMNGLRNNQRKAKRSLAPRFDLPDMKETKYTVDKRFGMDFKEIELIGSGGFGQVFKAKHRIDGKTYVIKRVKYNNEKAEREVKALAKLDHVNIVHYNGCWDGFDYDPETSDDSLESSDYDPENSKNSSRSKTKCLFIQMEFCDKGTLEQWIEKRRGEKLDKVLALELFEQITKGVDYIHSKKLIHRDLKPSNIFLVDTKQVKIGDFGLVTSLKNDGKRTRSKGTLRYMSPEQISSQDYGKEVDLYALGLILAELLHVCDTAFETSKFFTDLRDGIISDIFDKKEKTLLQKLLSKKPEDRPNTSEILRTLTVWKKSPEKNERHTC
- PKR autophosphorylation, in vitro PKR kinase activity assay [1]: When the purified recombinant PACT proteins were added, a dose dependent increase (left: 400 µg, right: 4.0 ng) in activated autophosphorylated PKR was observed
- PKR autophosphorylation, in vitro PKR kinase activity assay [2]: In all cases, recessive mutations demonstrated a slightly increased capacity to activate PKR ... as compared to wt PACT
- PKR autophosphorylation, in vitro PKR kinase activity assay [3]: In all cases, recessive mutations demonstrated a slightly increased capacity to activate PKR ... as compared to wt PACT
- PKR autophosphorylation, in vitro PKR kinase activity assay [4]: In all cases, recessive mutations demonstrated a slightly increased capacity to activate PKR ... as compared to wt PACT
- PKR autophosphorylation, in vitro PKR kinase activity assay [5]: In all cases, recessive mutations demonstrated a slightly increased capacity to activate PKR ... as compared to wt PACT
- PKR autophosphorylation, in vitro PKR kinase activity assay [6]: The dominant mutants (lower panel) also showed enhanced ability to activate PKR at 400 µg
- PKR autophosphorylation, in vitro PKR kinase activity assay [7]: The dominant mutants (lower panel) also showed enhanced ability to activate PKR at 400 µg

B2: wild type (wt) PACT (other, UniProt O75569 1-313, looked up)
chain: MSQSRHRAEAPPLEREDSGTFSLGKMITAKPGKTPIQVLHEYGMKTKNIPVYECERSDVQIHVPTFTFRVTVGDITCTGEGTSKKLAKHRAAEAAINILKANASICFAVPDPLMPDPSKQPKNQLNPIGSLQELAIHHGWRLPEYTLSQEGGPAHKREYTTICRLESFMETGKGASKKQAKRNAAEKFLAKFSNISPENHISLTNVVGHSLGCTWHSLRNSPGEKINLLKRSLLSIPNTDYIQLLSEIAKEQGFNITYLDIDELSANGQYQCLAELSTSPITVCHGSGISCGNAQSDAAHNALQYLKIIAERK
notes: also called Myc-PACT; flag-PACT
- binding result [8]: binds

B3: PACT C213R (recessive DYT16 mutant) (other, UniProt O75569 1-313, looked up)
chain: MSQSRHRAEAPPLEREDSGTFSLGKMITAKPGKTPIQVLHEYGMKTKNIPVYECERSDVQIHVPTFTFRVTVGDITCTGEGTSKKLAKHRAAEAAINILKANASICFAVPDPLMPDPSKQPKNQLNPIGSLQELAIHHGWRLPEYTLSQEGGPAHKREYTTICRLESFMETGKGASKKQAKRNAAEKFLAKFSNISPENHISLTNVVGHSLGRTWHSLRNSPGEKINLLKRSLLSIPNTDYIQLLSEIAKEQGFNITYLDIDELSANGQYQCLAELSTSPITVCHGSGISCGNAQSDAAHNALQYLKIIAERK
notes: as for B4
- binding result [8]: binds

Binder: B4
- binding result [8]: binds
- fold higher interaction than wt PACT-wt PACT [9]: ~9 fold

Binder: B5
- binding result [8]: binds
- binding result [10]: binds
